Assay results published in the supplement of paper PMC10567573.

B1: PLAGL1 (parent)
chain: EKPPSGTKEKKHQCDHCERCFYTR
B2: RIPK4 (parent)
chain: AAWQGHLPIVKLLAKQPGVSVNAQ

Variants of: B1
Assay: protein stability index of a GFP-peptide fusion (GPS, HEK-293T) (PSI 1-6); higher = more stable
Settings: c terminus: a fixed tail appended
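Also: lentivirally expressed fusions sorted by FACS into six bins by GFP to DsRed ratio, PSI derived from sequencing read proportions per bin multiplied by bin number.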

First: EKPPSGTKEKKHQCDHCERCFYTK [R24K]
Second: EKPPSGTKEKKHQCDHCERCFYTG [R24G]
The protein stability index of the first is higher: 4.74 for the first, 4.24 for the second.

Compared with EKPPSGTKEKKHQCDHCERCFYTD [R24D], EKPPSGTKEKKHQCDHCERCFYTF [R24F] is lower in protein stability index: 5.07 for the first, 4.35 for the second.

Going from EKPPSGTKEKKHQCDHCERCFYTH [R24H] to EKPPSGTKEKKHQCDHCERCFYTP [R24P], the protein stability index rises from 4.67 to 4.9.

First: EKPPSGTKEKKHQCDHCERCFYTM [R24M]
Second: EKPPSGTKEKKHQCDHCERCFYTV [R24V]
The protein stability index of the first is higher: 4.68 for the first, 4.07 for the second.

Going from EKPPSGTKEKKHQCDHCERCFYTT [R24T] to EKPPSGTKEKKHQCDHCERCFYTN [R24N], the protein stability index falls from 4.93 to 4.55.

Compared with EKPPSGTKEKKHQCDHCERCFYTS [R24S], EKPPSGTKEKKHQCDHCERCFYTW [R24W] is lower in protein stability index: 4.33 for the first, 4.29 for the second.

Going from EKPPSGTKEKKHQCDHCERCFYTA [R24A] to EKPPSGTKEKKHQCDHCERCFYTL [R24L], the protein stability index falls from 4.68 to 4.29.

Going from EKPPSGTKEKKHQCDHCERCFYTQ [R24Q] to EKPPSGTKEKKHQCDHCERCFYTE [R24E], the protein stability index falls from 5.28 to 4.67.

Going from EKPPSGTKEKKHQCDHCERCFYTI [R24I] to EKPPSGTKEKKHQCDHCERCFYTC [R24C], the protein stability index rises from 4.37 to 4.61.

Compared with EKPPSGTKEKKHQCDHCERCFYTY [R24Y], EKPPSGTKEKKHQCDHCERCIYTR [F21I] is higher in protein stability index: 3.96 for the first, 4.52 for the second.

Compared with EKPPSGTKEKKHQCDHCERCCYTR [F21C], EKPPSGTKEKKHQCDHCERCTYTR [F21T] is higher in protein stability index: 3.88 for the first, 4.26 for the second.

First: EKPPSGTKEKKHQCDHCERCSYTR [F21S]
Second: EKPPSGTKEKKHQCDHCERCPYTR [F21P]
The protein stability index of the first is higher: 4.22 for the first, 3.75 for the second.

Going from EKPPSGTKEKKHQCDHCERCYYTR [F21Y] to EKPPSGTKEKKHQCDHCERCHYTR [F21H], the protein stability index falls from 4.37 to 3.51.

First: EKPPSGTKEKKHQCDHCERCRYTR [F21R]
Second: EKPPSGTKEKKHQCDHCERCAYTR [F21A]
The protein stability index of the first is higher: 4.15 for the first, 4.06 for the second.

Compared with EKPPSGTKEKKHQCDHCERCVYTR [F21V], EKPPSGTKEKKHQCDHCERCGYTR [F21G] is higher in protein stability index: 3.95 for the first, 4.32 for the second.

Going from EKPPSGTKEKKHQCDHCERCMYTR [F21M] to EKPPSGTKEKKHQCDHCERCQYTR [F21Q], the protein stability index rises from 4.75 to 5.02.

Going from EKPPSGTKEKKHQCDHCERCDYTR [F21D] to EKPPSGTKEKKHQCDHCERCNYTR [F21N], the protein stability index falls from 4.34 to 4.33.

Going from EKPPSGTKEKKHQCDHCERCLYTR [F21L] to EKPPSGTKEKKHQCDHCERCKYTR [F21K], the protein stability index rises from 4.08 to 4.39.

First: EKPPSGTKEKKHQCDHCERCEYTR [F21E]
Second: EKPPSGTKEKKHQCDHCERCFYQR [T23Q]
The protein stability index of the first is higher: 4.11 for the first, 4.01 for the second.

EKPPSGTKEKKHQCDHCERCFYLR [T23L] and EKPPSGTKEKKHQCDHCERCFYCR [T23C] are the same in protein stability index: 4.64 for the first, 4.64 for the second.

First: EKPPSGTKEKKHQCDHCERCFYRR [T23R]
Second: EKPPSGTKEKKHQCDHCERCFYNR [T23N]
The protein stability index of the first is higher: 3.4 for the first, 2.86 for the second.

First: EKPPSGTKEKKHQCDHCERCFYSR [T23S]
Second: EKPPSGTKEKKHQCDHCERCFYDR [T23D]
The protein stability index of the first is lower: 3.79 for the first, 4.63 for the second.

Compared with EKPPSGTKEKKHQCDHCERCFYGR [T23G], EKPPSGTKEKKHQCDHCERCFYVR [T23V] is higher in protein stability index: 4.1 for the first, 4.11 for the second.

First: EKPPSGTKEKKHQCDHCERCFYHR [T23H]
Second: EKPPSGTKEKKHQCDHCERCFYFR [T23F]
The protein stability index of the first is lower: 3.86 for the first, 3.97 for the second.

Going from EKPPSGTKEKKHQCDHCERCFYWR [T23W] to EKPPSGTKEKKHQCDHCERCFYER [T23E], the protein stability index rises from 4.12 to 5.09.

Compared with EKPPSGTKEKKHQCDHCERCFYAR [T23A], EKPPSGTKEKKHQCDHCERCFYPR [T23P] is lower in protein stability index: 3.89 for the first, 3.64 for the second.

Going from EKPPSGTKEKKHQCDHCERCFYYR [T23Y] to EKPPSGTKEKKHQCDHCERCFYIR [T23I], the protein stability index rises from 3.83 to 4.03.

Compared with EKPPSGTKEKKHQCDHCERCFYMR [T23M], EKPPSGTKEKKHQCDHCERCFYKR [T23K] is lower in protein stability index: 4.34 for the first, 3.99 for the second.

Compared with EKPPSGTKEKKHQCDHCERYFYTR [C20Y], EKPPSGTKEKKHQCDHCERWFYTR [C20W] is lower in protein stability index: 2.66 for the first, 2.35 for the second.

First: EKPPSGTKEKKHQCDHCERCFKTR [Y22K]
Second: EKPPSGTKEKKHQCDHCERCFHTR [Y22H]
The protein stability index of the first is higher: 4.45 for the first, 4.13 for the second.

First: EKPPSGTKEKKHQCDHCERCFITR [Y22I]
Second: EKPPSGTKEKKHQCDHCERCFDTR [Y22D]
The protein stability index of the first is lower: 4.17 for the first, 4.58 for the second.

First: EKPPSGTKEKKHQCDHCERCFPTR [Y22P]
Second: EKPPSGTKEKKHQCDHCERCFCTR [Y22C]
The protein stability index of the first is lower: 4.05 for the first, 4.84 for the second.

Compared with EKPPSGTKEKKHQCDHCERCFTTR [Y22T], EKPPSGTKEKKHQCDHCERCFQTR [Y22Q] is higher in protein stability index: 3.89 for the first, 4.21 for the second.

Going from EKPPSGTKEKKHQCDHCERCFATR [Y22A] to EKPPSGTKEKKHQCDHCERCFMTR [Y22M], the protein stability index rises from 4.25 to 4.37.

Compared with EKPPSGTKEKKHQCDHCERCFSTR [Y22S], EKPPSGTKEKKHQCDHCERCFNTR [Y22N] is higher in protein stability index: 4.17 for the first, 4.22 for the second.

Compared with EKPPSGTKEKKHQCDHCERCFFTR [Y22F], EKPPSGTKEKKHQCDHCERCFRTR [Y22R] is higher in protein stability index: 3.35 for the first, 4.3 for the second.

Going from EKPPSGTKEKKHQCDHCERCFWTR [Y22W] to EKPPSGTKEKKHQCDHCERCFVTR [Y22V], the protein stability index rises from 3.18 to 3.69.

First: EKPPSGTKEKKHQCDHCERCFLTR [Y22L]
Second: EKPPSGTKEKKHQCDHCERCFGTR [Y22G]
The protein stability index of the first is higher: 4.35 for the first, 4.03 for the second.

Work on EKPPSGTKEKKHQCDHCERCFETR [Y22E] yielded a protein stability index of 4.67.

Variants of: B2
Assay: as above
Settings: c terminus: a fixed tail appended

Compared with AAWQGHMPIVKLLAKQPGVSVNAQ [L7M], AAWQGHDPIVKLLAKQPGVSVNAQ [L7D] is higher in protein stability index: 2.33 for the first, 3.03 for the second.

Compared with AAWQGHIPIVKLLAKQPGVSVNAQ [L7I], AAWQGHFPIVKLLAKQPGVSVNAQ [L7F] is lower in protein stability index: 2.76 for the first, 2.71 for the second.

Going from AAWQGHQPIVKLLAKQPGVSVNAQ [L7Q] to AAWQGHAPIVKLLAKQPGVSVNAQ [L7A], the protein stability index falls from 3.55 to 2.1.

First: AAWQGHPPIVKLLAKQPGVSVNAQ [L7P]
Second: AAWQGHCPIVKLLAKQPGVSVNAQ [L7C]
The protein stability index of the first is higher: 3.21 for the first, 2.21 for the second.

Going from AAWQGHGPIVKLLAKQPGVSVNAQ [L7G] to AAWQGHNPIVKLLAKQPGVSVNAQ [L7N], the protein stability index rises from 3.01 to 3.36.

First: AAWQGHEPIVKLLAKQPGVSVNAQ [L7E]
Second: AAWRGHLPIVKLLAKQPGVSVNAQ [Q4R]
The protein stability index of the first is higher: 3.31 for the first, 1.89 for the second.

Going from AAWWGHLPIVKLLAKQPGVSVNAQ [Q4W] to AAWMGHLPIVKLLAKQPGVSVNAQ [Q4M], the protein stability index rises from 1.61 to 1.94.

First: AAWFGHLPIVKLLAKQPGVSVNAQ [Q4F]
Second: AAWGGHLPIVKLLAKQPGVSVNAQ [Q4G]
The protein stability index of the first is lower: 1.24 for the first, 2.56 for the second.

Variant AAWNGHLPIVKLLAKQPGVSVNAQ [Q4N] has a protein stability index of 2.06.
